A word on the Km: it is the concentration of substrate that gives half-maximal velocity.

Substrate in this series: O=[N+]([O-])c1ccc(O[C@@H]2O[C@H](CO)[C@@H](O)[C@H](O)[C@H]2O)cc1
Description: purified protein. Conditions: 50 mM imidazole-potassium buffer pH 6.4, 70°C, Table 2 prints 0.63.

B1: BGL (β-glucosidase, Tthe_1813) (Thermoanaerobacterium thermosaccharolyticum DSM 571) (protein)
chain: MSDFNKDFLFGVATASYQVEGAYNEDGRSMSIWDTFCRQDGKVYKGHNGDVACDHYHLYKDDVKMMKDLGIEAYRFSIAWPRIFPEKGHYNPKGIDFYKRLTDELLKNDIKPFVTIYHWDLPQWADDLGGWLNREVVDWFGEYVSKLFNELGGYIRNWITLNEPWCSSFLSYFIGEHAPGHKDLGEAVLVSHNLLLAHGKAVEIFRDINSSDSKIGITLNLNEVFPATDSPEDKAAARIADGFQNRWFLDPIFKGEYPKDMLELFGKYAKTDFITDGDLKRISQKLDFLGVNYYTRAVVKKGNDGILNAEQIDVDNEKTEMGWEVYPESLYNILMRLKNEYTFDLPLYITENGAAYKDVVSDDGHVHDEKRVEFLKKHFKQAKRFIDDGGNLRGYFVWSLMDNFEWAHGYSKRFGIVYVDYETEKRILKDSALWYKNLISTRTI
As for B1, the Km amounted to 620 µM.
